Data as given in patent publication US6893843B2, “Nucleic acids” (priority 1990, dated 2005).
Like-named read-outs stand apart in the source and are kept apart here. No end group written: not given here.

What was measured:
Proteinase 3 = molecular target: T1, Proteinase 3 (Homo sapiens, UniProt P24158); test: Inhibition of proteinase 3 (elastin-FITC hydrolysis); type: biochemical; conditions: 37° C., 4 hours, pH 8.5, read-out: IC50 against proteinase 3
T1 construct: Proteinase 3 was purified from human polymorphonuclear leukocytes using the method of Ludemann; from tissue; host or cells: human polymorphonuclear leukocytes
T1 sequence (P24158 28-256): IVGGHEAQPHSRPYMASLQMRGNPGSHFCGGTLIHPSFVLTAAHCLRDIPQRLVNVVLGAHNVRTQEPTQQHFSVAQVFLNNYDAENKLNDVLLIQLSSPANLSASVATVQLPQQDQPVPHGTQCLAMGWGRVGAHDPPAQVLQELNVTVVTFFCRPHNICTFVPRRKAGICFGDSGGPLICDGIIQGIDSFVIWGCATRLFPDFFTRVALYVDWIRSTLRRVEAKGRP
Description: Proteinase 3 was purified from human polymorphonuclear leukocytes using the method of Ludemann reported in J Exp Med 171, 357-362, 1990. The absence of human leukocyte elastase and cathespin G was confirmed by the lack of activity of the proteinase 3 preparation with the substrates methoxy-succinyl-ala-ala-pro-val-p-nitroanilide (AAPVpNA), and succinyl-ala-ala-phe-p-nitroanilide respectively according to the method of Nakajima (7).
The elastinolytic activity was determined by hydrolysis of bovine ligamentum nuchae elastin-FITC (Elastin Products Corporation, USA).
The proteinase 3 preparation (1 μl) was preincubated at 37° C. for 30 minutes with the elastase inhibitor of formula I (0-1 μg) in carbonate buffer (50 μl, 0.1M), NaN3 (0.02%), Brij 35 (0.01%), pH8,5. Elastin-FITC (1 mg) in carbonate buffer (100 μl, 0.1M), NaN3 (0.02%), Brij 35 (0.01%), pH8.5. The mixture was incubated at 37° C. with gentle agitation for 4 hours, and then centrifuged at 6000×g. The supernatants were diluted 1:20 and the fluorescence of the solubilised elastin-FITC was determined using a Perkin Elmer LS 50 microtiterplate reader at Ex489 nm, Em 513 nm. Fluorescence was corrected by enzyme free controls and inhibition expressed in % of inhibitor free controls.

Acid stability = type: physicochemical
trypsin = test: Inhibition of trypsin (TGPLpNA substrate); type: biochemical
Description: (§1) 100 μl inhibitor (1 μg/ml) and 100 μl trypsin (1 μg/ml) or plasmin (1 μg/ml) as appropriate were incubated for 30 minutes before adding the substrate, 0.1 mM tosyl-glycyl-prolyl-lysin-pNA (Boehringer Mannheim, FRG) in 0.05M HEPES, 0.12M NaCl, pH7.5.

Alpha-chymotrypsin = Alpha-chymotrypsin (Bos taurus, UniProt P00766); test: Inhibition of Alpha-chymotrypsin (AAPFpNA substrate); type: biochemical
Description: (§2) The activities of cathepsin G and Alpha-chymotrypsin were determined according to the method of Nakajima et al (9) using an analogue to HLE—succinyl-alanyl-alanyl-prolyl-phenylalanyl-p-nitroanilide (AAPFpNA, Sigma). For inhibition experiments, the highest concentration of the inhibitor was 1 μg/ml, representing a threefold molar concentration as compared to cathepsin G and Alpha-chymotrypsin.

[1] = molecular target: porcine pancreatic elastase (Sus scrofa, UniProt P00772); test: Inhibition of porcine pancreatic elastase (AAPV-AFC fluorogenic substrate); type: biochemical
Chain of porcine pancreatic elastase (P00772 27-266): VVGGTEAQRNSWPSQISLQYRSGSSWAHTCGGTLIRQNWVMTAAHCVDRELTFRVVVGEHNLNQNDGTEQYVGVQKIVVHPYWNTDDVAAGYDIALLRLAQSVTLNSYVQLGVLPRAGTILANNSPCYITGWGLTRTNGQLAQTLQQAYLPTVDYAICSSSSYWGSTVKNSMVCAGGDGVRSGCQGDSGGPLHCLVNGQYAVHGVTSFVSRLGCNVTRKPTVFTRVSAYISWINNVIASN
Description: The activity of porcine pancreatic elastase (E.C. 3.4.21.36) was determined using the flourogenic substrate methoxy-succinyl-alanyl-alanyl-prolyl-valyl-trifluoromethylcoumarine (AAPV-AFC, Bachem, Bubendorf, Switzerland).
Elastase (100 μl) and inhibitor (100 μl) were pre-incubated for 30 minutes. A solution of substrate (1.8 ml of a 0.1 mM solution) was then added. Flourescence, Ex 400 Em 505, was followed and the %-inhbition was calculated from the initial activity of samples and controls. The dissociation constant (Ki) was determined according to the method of Green and Work (8).

Isoelectric focussing = type: physicochemical; conditions: silver stain and enzymatic detection in gel slices
Description: Isoelectric focussing was performed by using Servalyt Precoates pH 3-10 and Test-Mix 9 (Serva). Prefocussing was for 30 minutes at 3 watts, and silver stain (Sigma) or Comassie blue R stain was used according to Serva instructions. In parallel, the precoates were sliced and eluted to localise inhibitory active peptides. Approximately 1 mm slices were eluted with 100 μl acetonitrile. The eluates were allowed to dry and were resolved in 100 μl of buffer (0.1M HEPES, 0.5M NaCl, 1% BSA, pH 7.5) containing 20 ng HLE. After 30 minutes incubation the remaining HLE activity was determined.

human cathepsin G = molecular target: T2, human cathepsin G (Homo sapiens, UniProt P08311); test: Inhibition of cathepsin G (AAPFpNA substrate); type: biochemical; conditions: substrate 0.5 mM AAPFpNA; inhibitor up to 1 μg/ml (threefold molar); n.i. = no inhibition
T2 sequence (P08311 21-255): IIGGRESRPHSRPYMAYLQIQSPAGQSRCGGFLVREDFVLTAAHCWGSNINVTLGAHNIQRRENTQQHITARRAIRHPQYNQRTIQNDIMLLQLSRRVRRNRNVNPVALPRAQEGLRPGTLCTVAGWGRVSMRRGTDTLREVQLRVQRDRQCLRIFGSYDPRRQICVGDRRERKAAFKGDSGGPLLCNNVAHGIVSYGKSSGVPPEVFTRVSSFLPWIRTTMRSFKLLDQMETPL
Description: as §2

human leukocyte elastase = molecular target: T3, human leukocyte elastase (Homo sapiens, UniProt P08246); test: Inhibition of human leukocyte elastase (AAPVpNA substrate; Ki by Green and Work); type: biochemical; conditions: for Ki: method of Green and Work
T3 construct: purchased Elastin Products Corporation, Pacific, Mo., USA
T3 sequence (P08246 30-267): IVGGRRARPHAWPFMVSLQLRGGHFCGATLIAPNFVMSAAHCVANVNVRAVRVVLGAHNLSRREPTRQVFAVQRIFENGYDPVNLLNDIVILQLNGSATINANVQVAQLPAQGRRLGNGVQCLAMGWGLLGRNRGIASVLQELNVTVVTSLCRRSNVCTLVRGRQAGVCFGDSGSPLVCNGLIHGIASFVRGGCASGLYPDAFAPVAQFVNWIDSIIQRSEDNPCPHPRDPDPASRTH
Description: The potency of polypeptides of the present invention to act as an elastase inhibitor was determined by the ability of a compound of the invention to inhibit the action of human leukocyte elastase (HLE) on a low molecular weight peptide substrate. The potency of an inhibitor was evaluated by obtaining a kinetic determination of the dissociation constant, Ki, of the complex formed from the interaction of th inhibitor with HLE. The substrate used was the anilide methoxysuccinyl-alanyl-alanyl-prolyl-valine-p-nitroanilide as described by K. Nakajima et al. in the J. Biol. Chem., 254: 4027-4032 (1979) and by T. Teshima et al. in J. Biol Chem., 257: No 9, 5085-5091 (1982). The HLE enzyme used in these studies may be obtained from Elastin Products of St. Louis, Mo. or can be purified according to B. R. Viscarello et al. in Preparative Biochemistry, Vol. 13, pages 57-67, (1983).
The activity of human leukocyte elastase (EC 3.4.21.37) was determined according to the method of Nakajima et al (7). Inhibition of HLE was determined by the use of the synthetic peptide methoxy-succinyl-alanyl-alanyl-prolyl-valyl-p-nitro anilide (AAPVpNA, Sigma).
Sample (100 μl) and 100 μl HLE (200 ng/ml; Elastin Products Corporation, Pacific, Mo., USA) in assay buffer (0.1M, HEPES, 0.5M NaCl, 10% DMSO, pH 7.5) were incubated for 30 minutes at room temperature. Substrate (800 μl 0.5 mM) in assay buffer was then added.
Changes in absorbance at 405 nm were followed up to 1 hour and the %-inhibition was calculated from the remaining activity and controls. The dissociation constant (Ki) was determined according to the method of Green and Work (8) in the same system, using 2 mM substrate and (1 μg/ml) HLE (final concentrations).

plasmin = plasmin (Homo sapiens, UniProt P00747); test: Inhibition of plasmin (TGPLpNA substrate); type: biochemical
Chain of plasmin (P00747 581-810 limits assumed, species assumed): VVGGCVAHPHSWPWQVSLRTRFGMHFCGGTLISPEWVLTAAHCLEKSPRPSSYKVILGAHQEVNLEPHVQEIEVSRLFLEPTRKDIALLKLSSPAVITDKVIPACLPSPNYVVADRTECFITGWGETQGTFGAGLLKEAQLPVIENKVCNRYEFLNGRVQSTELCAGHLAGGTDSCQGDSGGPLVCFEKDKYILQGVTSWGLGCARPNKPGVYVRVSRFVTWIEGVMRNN
Chain of plasmin (P00747 97-580 partner limits assumed, species assumed): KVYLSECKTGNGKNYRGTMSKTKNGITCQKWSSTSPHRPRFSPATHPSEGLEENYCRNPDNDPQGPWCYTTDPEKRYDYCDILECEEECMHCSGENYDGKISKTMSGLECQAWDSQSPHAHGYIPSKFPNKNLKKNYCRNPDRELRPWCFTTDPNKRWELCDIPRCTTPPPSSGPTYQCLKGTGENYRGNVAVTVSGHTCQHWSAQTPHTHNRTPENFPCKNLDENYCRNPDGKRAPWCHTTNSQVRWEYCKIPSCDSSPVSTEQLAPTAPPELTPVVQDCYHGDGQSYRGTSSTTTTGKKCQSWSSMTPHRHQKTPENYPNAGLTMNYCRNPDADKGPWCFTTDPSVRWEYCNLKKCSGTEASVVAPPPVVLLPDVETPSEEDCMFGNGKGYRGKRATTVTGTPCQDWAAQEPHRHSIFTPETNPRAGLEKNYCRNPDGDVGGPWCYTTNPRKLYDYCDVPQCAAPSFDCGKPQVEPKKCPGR
Description: as §1

[2] = at least threefold excess of the inhibitor
[3] = substrate 0.1 mM TGPLpNA, inhibitor 1 μg/ml, n.i. = no inhibition

In the case of “AQEPVKGPVSTKPGSCPIILIRCAMLNPPNRCLKDTDCPGIKKCCEGSCGMACFVPQ (cysteine pairing not given here) [prominent inhibitor]”, the IC50 (Proteinase 3) is reported as 9.5 nM, the acid stability (Acid stability) is reported as “acid stable” and the “inhibition of trypsin (in words)” value (trypsin; [2]) is reported as “neither Alpha- chymotrypsin, nor trypsin and plasmin were significantly inhibited”. The “DISSOCIATION CONSTANT (Ki), trypsin” value (trypsin; [3]) was “n.i”, the “inhibition of Alpha-chymotrypsin (in words)” value (Alpha-chymotrypsin; [2]) was “neither Alpha- chymotrypsin, nor trypsin and plasmin were significantly inhibited” and the “DISSOCIATION CONSTANT (Ki), Alpha-chymotrypsin” value (Alpha-chymotrypsin; substrate 0.5 mM AAPFpNA, inhibitor up to 1 μg/ml (threefold molar), n.i. = no inhibition) was “n.i”. For the same sequence, the “inhibition of porcine pancreatic elastase (in words)” value [1] was “found to inhibit”, the Ki ([1]; substrate 0.1 mM AAPV-AFC, method of Green and Work, read-out: DISSOCIATION CONSTANT (Ki), porcine pancreatic elastase) was 1 nM and the isoelectric point (Isoelectric focussing) was 9.7 pH. The “DISSOCIATION CONSTANT (Ki), human cathepsin G” value (human cathepsin G) was “n.i”, the “inhibition of HLE (in words)” value (human leukocyte elastase) was “found to inhibit” and the Ki (human leukocyte elastase; Poly LC-HPLC peak compared with inhibitor from human skin, read-out: Ki, titrated against HLE) was 0.33 nM. For the same sequence, the Ki (human leukocyte elastase; substrate 2 mM AAPVpNA, 1 μg/ml HLE, read-out: DISSOCIATION CONSTANT (Ki), human leukocyte elastase) was 0.3 nM, the “inhibition of plasmin (in words)” value (plasmin; [2]) was “neither Alpha- chymotrypsin, nor trypsin and plasmin were significantly inhibited” and the “DISSOCIATION CONSTANT (Ki), plasmin” value (plasmin; [3]) was “n.i”.
